Test: Cryo-TEM of micelles
Type: physicochemical
Procedure: Specimens were prepared either in an automated vitrification device (Vitrobot, FEI, The Netherlands) or in the controlled environment vitrification system (CEVS) (Bellare et al. Electron Microsc. Technique, 1988, 10; 87-111) at 24° C. and 100% relative humidity to avoid loss of volatiles. Using the latter, the solutions were incubated in the CEVS at the desired temperature for 1 h. Then, a 7 μL drop of each solution was placed on a TEM copper grid covered with a perforated carbon film (Pelco International) and blotted with filter paper to form a thin liquid film of the sample (100-200 nm thick). The thinned sample was plunged into liquid ethane at its freezing temperature (−183° C.) to form a vitrified specimen and then transferred to liquid nitrogen ([…]) for storage. Some of the vitrified specimens were examined in a Philips CM120 transmission electron microscope. (Philips, The Netherlands) operating at an accelerating voltage of 120 kV. An Oxford CT3500 (Oxford Instruments) cryo-specimen holder that maintained the specimens below −175° C. during sample transfer and observation Other specimens were examined in a Tecnai 12 G2 TEM (FEI) using a Gatan 626 cryo-holder. Specimens were studied in a low-dose imaging mode to minimize beam exposure and electron beam radiation damage.
Images were recorded digitally on a cooled Gatan MultiScan 791 CCD camera using DigitalMicrograph 3.1 software (Gatan) in the low-dose imaging mode to minimize beam exposure and electron-beam radiation damage. Alternatively, images were recorded in the Tecnai on a high-resolution 2 k×2 k Ultrascan 1000 cooled CCD (Gatan, UK), using the Digital Micrograph 3.6 software (Gatan, UK).
The structural characteristics of the micelles in the two pH environments were studied by cryo-TEM and SAXS (Small Angle X-ray Scattering). Cryo-TEM was used to determine the shape of the micelles and to estimate their dimensions between 4 and 40° C. This information was further used to accurately calculate the micelles' dimensions from the SAXS data, and to study how the size and shape are affected by temperature. […]

[1] = lactic acid solution pH 2.6, 4-40 °C

B1: β-casein: bovine β-casein self-assembled into unloaded micelles in acidic or neutral buffer (protein, UniProt P02666 16-224, looked up)
Beta-casein: RELEELNVPGEIVESLSSSEESITRINKKIEKFQSEEQQQTEDELQDKIHPFAQTQSLVYPFPGPIPNSLPQNIPPLTQTPVVVPPFLQPEVMGVSKVKEAMAPKHKEMPFPKYPVEPFTESQSLTLTDVENLHLPLPLLQSWMHQPHQPLPPTVMFPPQSVLSLSQSKVLPVPQKAVPYPQRDMPIQAFLLYQEPVLGPVRGPFPIIV
modifications: self-assembled micelles
notes: bovine β-casein self-assembled into unloaded micelles in acidic or neutral buffer
Maximum dimension of empty micelles (cryo-TEM) (hepes buffer pH ~7): about 22 nm
Micelle surface length (cryo-TEM) [1]: 20-25 nm
Micelle thickness (cryo-TEM) [1]: 3-4 nm
